{
  "source": "patent US7754689B2",
  "about": "“Finger-1 peptide analogs of the TGF-β superfamily” (Wyeth LLC, priority 2006, dated 2010)",
  "molecules": {"B1": {"name": "BMP-12: Bone Morphogenic Protein, member of the TGF-β superfamily; tested in solution and immobilized on Sepharose beads as affinity ligand (protein)", "chain": "TALAGTRTAQGSGGGAGRGHGRRGRSRCSRKPLHVDFKELGWDDWIIAPLDYEAYHCEGLCDFPLRSHLEPTNHAIIQTLLNSMAPDAAPASCCVPARLSPISILYIDAANNVVYKQYEDMVVEACGCR"}},
  "key": {"BMP-3 and BMP-12": {"tested_on": "BMP-3 and BMP-12", "test": "HPLC columns of BMP affinity resins loaded with BMP-3 and BMP-12", "type": "binding", "details": "columns loaded with BMP-3 and BMP-12", "from_the_text": "These columns were used loaded with BMP-3 and BMP-12. […] In some cases, size exclusion or reverse phase chromatography techniques were employed to enhance purification."}, "BMP-12": {"target": "T1, BMP-12 (Homo sapiens, UniProt Q7Z4P5)", "T1 sequence (Q7Z4P5 322-450)": "B1 chain", "test": "Affinity column chromatography, capture and elution of BMP-12", "type": "binding", "experimental": "BMP-12 was immobilized on NHS-activated Sepharose™ beads at a ratio of about 20 mg:4 mL and the resulting media combined with water or neutral saline buffer to prepare a column. CHO-conditioned media augmented with 1.2 M NaCl was loaded onto the column. In some cases, the media was preconcentrated with respect to BMP before loading. The column was washed with 15 CV (column volumes) of 1.2 M NaCl in 40 mM Na2HPO4 at pH 7.2, followed by 0.5 M arginine/0.5 M NaCl in 20 mM Tris at pH 7.5 (15 CV) and a low salt wash (50 mM ammonium acetate at pH 7, 15 CV). […] Finally, the column was eluted with 5CV of the acetic acid solution with 6M guanidine hydrochloride (GuHCl).\nBMP-12 was loaded and eluted from a BMP-12 affinity column as in Example 1.\nBMP-12 was purified using a column prepared with the BMP-12 wild type peptide described in Example 7."}},
  "data": [
    {"molecule": "B1", "values": [
      {"measurement": "effectiveness as affinity ligand for reverse phase HPLC", "setting": "BMP-3 and BMP-12", "result": "equally effective"},
      {"measurement": "capture of BMP-12 by column with immobilized ligand", "setting": "BMP-12; high salt / high ionic strength load", "result": "effectively captured"},
      {"measurement": "elution of BMP-12 from column with immobilized ligand", "setting": "BMP-12; washes, then gradient to 50 mM acetic acid pH 3, then 6M GuHCl", "result": "eluted with acetic acid and guanidine"}
    ]}
  ]
}
